Measured values published in US20240384250A1, “FIBROBLAST GROWTH FACTOR 23 MODULATING COMPOUNDS” (THE UAB RESEARCH FOUNDATION, priority 2021, published 2024).

Experiments:
[1] = target: T1, FGFR4 (Homo sapiens, UniProt P22455); assay: Plate-based binding assay, FGFR4 coated, FLAG-sKL detected with anti-FLAG HRP; settings: 40 ng FGFR4 coated, 80 ng FLAG-sKL, compared with FGFR1c
T1 construct: Fc-FGFR4 protein (human ectodomain) was immobilized; purchased R&D Systems 685FR050
T1 sequence (P22455 22-369 limits assumed): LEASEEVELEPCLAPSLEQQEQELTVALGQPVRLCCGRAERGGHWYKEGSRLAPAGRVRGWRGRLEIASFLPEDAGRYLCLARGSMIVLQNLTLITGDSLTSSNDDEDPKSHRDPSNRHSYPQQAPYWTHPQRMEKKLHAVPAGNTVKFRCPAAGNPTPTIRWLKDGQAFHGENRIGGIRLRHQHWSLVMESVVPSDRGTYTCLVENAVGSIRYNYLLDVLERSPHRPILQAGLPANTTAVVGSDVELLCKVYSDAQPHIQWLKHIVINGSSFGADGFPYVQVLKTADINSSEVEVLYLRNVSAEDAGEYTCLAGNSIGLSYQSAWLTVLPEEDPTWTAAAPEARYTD
Procedure: Proteins were coated on 96-well plates (MaxiSorp; 439454, Thermo Fisher Scientific), and proteins were added to wells in 100 μl of enzyme-linked immunosorbent assay (ELISA) coating buffer (E107, Bethyl Laboratories) with a lid placed overtop and incubated at 4° C. overnight. Plates were washed 5× with 350 μl of assay buffer (50 mM Tris [pH 7.4], 200 mM NaCl, 0.01% Tween 20) on a 50 TS microplate washer (BioTek). Plates were blocked for 1 hour in 200 μl of assay buffer with 0.5% BSA. Plates were washed as before, and proteins were incubated on plates in 100 μl of assay buffer with 0.5% BSA. Proteins or heparin was incubated in orders described in the respective figure legends. Assays using FLAG-tag-based detection were incubated with anti-FLAG coupled to HRP at 1:20,000, and assays using Fc detection were incubated with anti-human Fc coupled to HRP at 1:10,000. […] Reactions were stopped with ELISA stop solution (E115, Bethyl Laboratories) and analyzed using the Synergy HI plate reader (BioTek) at 450 nm wavelength. […] As a control to remove background absorbance values, wells were coated with an equal amount of BSA to match the amount of protein coated in experimental wells and treated the same as experimental wells. […]

[2] = target: T2, FGF23 (Homo sapiens, UniProt Q9GZV9); assay: Plate-based binding assay, FGF23 coated, FLAG-sKL detected with anti-FLAG HRP; settings: for binding of FLAG-sKL to coated FGF23 (absorbance at 450 nm): 10 ng FGF coated, 40 ng FLAG-sKL; for binding of FLAG-sKL to coated FGF23 compared with FGFR1c: 20 ng FGF23 coated, 80 ng FLAG-sKL
T2 construct: purchased R&D Systems 2604FG025/CF (human) or 2629FG025/CF (mouse)
T2 sequence (Q9GZV9 25-251): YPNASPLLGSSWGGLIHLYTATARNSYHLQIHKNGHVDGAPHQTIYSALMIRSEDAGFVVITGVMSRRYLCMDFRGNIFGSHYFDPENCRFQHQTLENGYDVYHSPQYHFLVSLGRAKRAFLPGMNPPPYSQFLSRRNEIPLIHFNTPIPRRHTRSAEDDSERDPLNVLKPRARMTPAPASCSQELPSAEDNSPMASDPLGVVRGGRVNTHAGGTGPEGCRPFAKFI
Procedure: Proteins were coated on 96-well plates (MaxiSorp; 439454, Thermo Fisher Scientific), and proteins were added to wells in 100 μl of enzyme-linked immunosorbent assay (ELISA) coating buffer (E107, Bethyl Laboratories) with a lid placed overtop and incubated at 4° C. overnight. Plates were washed 5× with 350 μl of assay buffer (50 mM Tris [pH 7.4], 200 mM NaCl, 0.01% Tween 20) on a 50 TS microplate washer (BioTek). Plates were blocked for 1 hour in 200 μl of assay buffer with 0.5% BSA. Plates were washed as before, and proteins were incubated on plates in 100 μl of assay buffer with 0.5% BSA. Proteins or heparin was incubated in orders described in the respective figure legends. Assays using FLAG-tag-based detection were incubated with anti-FLAG coupled to HRP at 1:20,000, and assays using Fc detection were incubated with anti-human Fc coupled to HRP at 1:10,000. Plates were washed as above, and 100 μl of 3,3′,5,5′-tetramethylbenzidine (TMB) substrate (E102, Bethyl Laboratories) was added for 15 to 20 minutes until positive wells developed a dark blue color. Reactions were stopped with ELISA stop solution (E115, Bethyl Laboratories) and analyzed using the Synergy HI plate reader (BioTek) at 450 nm wavelength. […] As a control to remove background absorbance values, wells were coated with an equal amount of BSA to match the amount of protein coated in experimental wells and treated the same as experimental wells. To study the effects of sKL on the binding between paracrine FGFs and FGFRs, plates were run as above except coated with paracrine FGFs. Fc-FGFR1 was preincubated with sKL or vehicle for 60 minutes, and then the combination was added to wells and the assay was run as before.

[3] = Half-life of recombinant sKL in the circulation of rats; assay type: in vivo, rat; settings: tail vein injection 100 μg/kg
Procedure: To determine the half-life of recombinant sKL protein in the circulation, rats were injected with the Strep-tagged mouse sKL that was purified as described above. Each group consisted of 3 male Sprague Dawley rats (9 weeks of age and weighing approximately 300 g). For injections and bleeding, rats were anesthetized with 2.5% isoflurane. For injections, a shielded i.v. catheter (BD Insyte Autoguard 0.7×19 mm, catalog no. 381412) was inserted into the lateral tail vein and flushed with 100 μl of isotonic saline (0.9%). One milliliter of purified sKL protein dissolved in isotonic saline (100 μg/kg) or isotonic saline was then injected, and the catheter was flushed again with 100 μl of isotonic saline. For bleeding, a shielded i.v. catheter was inserted into the lateral tail vein. Blood samples (300 μl) were taken after 1, 3, 5, 10, 15, 30, and 60 minutes as well as 3, 6, 12, and 48 hours. For collections from 15 minutes to 48 hours postinjection, a separate i.v. catheter was inserted each time to draw blood. For collections from 1 to 15 minutes post-sKL injection, the same i.v. catheter was used, and to exclude contamination with the previous draw, the catheter was flushed with isotonic saline between each sample. […] Serum was then aliquoted and stored at approximately […] before analysis. For the sKL activity assay, wells were coated with 500 ng of mouse FGF23 in 100 μl of coating buffer (E107, Bethyl Laboratories) at 4° C. overnight. Plates were washed 5× at 350 μl of assay buffer (50 mM Tris, [pH 7.4] 200 mM NaCl, 0.01% Tween 20) on a 50 TS microplate washer (BioTek). Plates were blocked for 1 hour in 200 μl of assay buffer with 0.5% BSA. Plates were washed and incubated with 30 μl per well and 70 μl of assay buffer with 0.5% BSA. Standards were run at noted concentrations by using purified Strep-tagged mouse sKL protein with 30 μl of control serum and 70 μl of assay buffer with 0.5% BSA added to ensure consistency. All samples and standards were run in triplicates. After 1 hour, plates were washed, and 150 ng of Fc-FGFR1c were incubated on plates in 100 μl of assay buffer with 0.5% BSA. After 1 hour, plates were washed and incubated with anti-human Fc-HRP at 1:10,000. Plates were washed as above and 100 μl of TMB substrate (E102, Bethyl Laboratories) was added for 15 to 20 minutes until positive wells developed a dark blue color. Reactions were stopped with ELISA stop solution (E115, Bethyl Laboratories) and analyzed using the Synergy HI plate reader (BioTek) at 450 nm wavelength. Amounts of sKL were calculated by taking the slope of the standard curve and calculating where the sample points fit in.

binding of FLAG-sKL to coated FGFR4 [1]: to a lesser extent | binding of FLAG-sKL to coated FGFR4 ([1]; listed as FLAG-sKL): to a lower extent | binding of FLAG-sKL to coated FGF23 (absorbance at 450 nm) [2]: bound FGF23 | binding of FLAG-sKL to coated FGF23 (absorbance at 450 nm) ([2]; listed as FLAG-sKL): only FGF23 bound FLAG-sKL | binding of FLAG-sKL to coated FGF23 compared with FGFR1c [2]: to a lesser extent | binding of FLAG-sKL to coated FGF23 compared with FGFR1c ([2]; listed as FLAG-sKL): to a lower extent | FGF23 binding affinity, protein from HEK293 lysates instead of supernatants ([2]; 100 ng FGF23 coated, normalized to sKL amounts): higher
B1: sKL: recombinant soluble α-klotho ectodomain, mouse aa 35-982 and human aa 34-981, FLAG- or Strep/His-tagged, purified from HEK293 cells (protein)
chain: EPGDGAQTWARFSRPPAPEAAGLFQGTFPDGFLWAVGSAAYQTEGGWQQHGKGASIWDTFTHHPLAPPGDSRNASLPLGAPSPLQPATGDVASDSYNNVFRDTEALRELGVTHYRFSISWARVLPNGSAGVPNREGLRYYRRLLERLRELGVQPVVTLYHWDLPQRLQDAYGGWANRALADHFRDYAELCFRHFGGQVKYWITIDNPYVVAWHGYATGRLAPGIRGSPRLGYLVAHNLLLAHAKVWHLYNTSFRPTQGGQVSIALSSHWINPRRMTDHSIKECQKSLDFVLGWFAKPVFIDGDYPESMKNNLSSILPDFTESEKKFIKGTADFFALCFGPTLSFQLLDPHMKFRQLESPNLRQLLSWIDLEFNHPQIFIVENGWFVSGTTKRDDAKYMYYLKKFIMETLKAIKLDGVDVIGYTAWSLMDGFEWHRGYSIRRGLFYVDFLSQDKMLLPKSSALFYQKLIEKNGFPPLPENQPLEGTFPCDFAWGVVDNYIQVDTTLSQFTDLNVYLWDVHHSKRLIKVDGVVTKKRKSYCVDFAAIQPQIALLQEMHVTHFRFSLDWALILPLGNQSQVNHTILQYYRCMASELVRVNITPVVALWQPMAPNQGLPRLLARQGAWENPYTALAFAEYARLCFQELGHHVKLWITMNEPYTRNMTYSAGHNLLKAHALAWHVYNEKFRHAQNGKISIALQADWIEPACPFSQKDKEVAERVLEFDIGWLAEPIFGSGDYPWVMRDWLNQRNNFLLPYFTEDEKKLIQGTFDFLALSHYTTILVDSEKEDPIKYNDYLEVQEMTDITWLNSPSQVAVVPWGLRKVLNWLKFKYGDLPMYIISNGIDDGLHAEDDQLRVYYMQNYINEALKAHILDGINLCGYFAYSFNDRTAPRFGLYRYAADQFEPKASMKHYRKIIDSNGFPGPETLERFCPEEFTVCTECSFFHTRKS
modifications: left off: small tags and cut ends
notes: recombinant soluble α-klotho ectodomain, mouse aa 35-982 and human aa 34-981, FLAG- or Strep/His-tagged, purified from HEK293 cells
time postinjection from which sKL could no longer be detected [3]: ≥ 3 h | time post-injection after which sKL levels were reduced by about half ([3]; earlier time points): approximately 10 minutes | half-life in the circulation ([3]; serum, listed as recombinant sKL protein): approximately 10 minutes | serum sKL level at the 15-minute time point ([3]; versus vehicle): high levels of sKL were detected
